Tests used:
[1] = system: T1, TAMRA-(Ahx)SRVGEEEHVYSFPNKQKSAEC-CONH2 (unphosphorylated Abl substrate derived from paxillin) on nanoparticles (Y-Abl TSACs)
T1 sequence: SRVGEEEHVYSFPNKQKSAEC

[2] = system: MMP-2 substrate G-K(TAMRA)-G-P-L-G-V-R-G-C-CONH2 with 20 kDa PEG, on ligand (biotin) TSACs (Example 3)
[3] = system: MMP-7 substrate G-K(TAMRA)-G-V-P-L-S-L-T-M-G-C-CONH2 with 20 kDa PEG, on receptor (NeutrAvidin) TSACs (Example 3)
[4] = system: MMP-7-MMP-2 tandem substrate TAMRA-G-K-G-V-P-L-S-L-T-M-Ahx-G-P-L-G-V-R-G-C-CONH2 with 20 kDa PEG, on ligand (biotin) TSACs (Example 3)
[5] = system: MMP-2 cleavable peptide substrate KGPLGVRGC, PEG on the lysine, on biotin and NeutrAvidin nanoparticles (Example 1)

Sequence of recombinant catalytic domain of matrix metalloproteinase-2 (MMP-2; Biomol) (chain, as listed by the source): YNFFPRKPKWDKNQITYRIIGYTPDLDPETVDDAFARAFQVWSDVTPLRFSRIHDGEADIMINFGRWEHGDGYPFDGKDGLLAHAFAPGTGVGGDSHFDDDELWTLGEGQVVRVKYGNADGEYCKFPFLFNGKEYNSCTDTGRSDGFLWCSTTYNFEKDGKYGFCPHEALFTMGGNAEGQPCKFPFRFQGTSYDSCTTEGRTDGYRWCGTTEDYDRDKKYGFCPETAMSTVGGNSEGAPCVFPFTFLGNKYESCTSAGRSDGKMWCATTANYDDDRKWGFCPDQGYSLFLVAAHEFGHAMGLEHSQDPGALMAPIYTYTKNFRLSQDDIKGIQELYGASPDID

Substance	TSAC assembly in DLS (hydrodynamic radius) [1]	lowest kinase amount giving quantifiable T2 relaxation enhancement (MRI) [1]	TSAC assembly in DLS [2]	TSAC assembly in DLS [3]	hydrodynamic radius increase in DLS [4]	TSAC assembly (extinction at 600 nm, AFM) [5]	lowest MMP-2 concentration detected by T2 relaxation (MRI) [5]
Abl kinase (New England Biolabs)	Abl kinase rapidly directed assembly in solutions containing Y-Abl TSACs with SH2 TSACs	as little as 11 fentomoles of added kinase (110 pM kinase concentrations=0.05 U/µl	–	–	–	–	–
recombinant catalytic domain of matrix metalloproteinase-2 (MMP-2; Biomol)	–	–	Addition of 0.4 µg MMP-2 actuates TSAC assembly, while 0.4 µg MMP-7 or no enzyme is insufficient	addition of 0.4 µg MMP-7 induces assembly, while 0.4 µg MMP-2 cannot	Hydrodynamic radii increased more than 5-fold in the presence of either enzyme or both enzymes	The TSACs with the scrambled peptide exhibit markedly decreased assembly compared to the specific peptide sequence	TSACs at a 10 pM concentration were sensitive to at least 170 ng/ml (9.4 U/ml) of MMP-2

Reference: patent US20090246142
